{
  "source": "IntAct's records for PubMed 18196517",
  "parents": {"B1": {"name": "Sorting nexin-20 (Homo sapiens), Q7Z614 (parent)", "chain": "MASPEHPGSPGCMGPITQCTARTQQEAPATGPDLPHPGPDGHLDTHSGLSSNSSMTTRELQQYWQNQKCRWKHVKLLFEIASARIEERKVSKFVVYQIIVIQTGSFDNNKAVLERRYSDFAKLQKALLKTFREEIEDVEFPRKHLTGNFAEEMICERRRALQEYLGLLYAIRCVRRSREFLDFLTRPELREAFGCLRAGQYPRALELLLRVLPLQEKLTAHCPAAAVPALCAVLLCHRDLDRPAEAFAAGERALQRLQAREGHRYYAPLLDAMVRLAYALGKDFVTLQERLEESQLRRPTPRGITLKELTVREYLH", "partner": "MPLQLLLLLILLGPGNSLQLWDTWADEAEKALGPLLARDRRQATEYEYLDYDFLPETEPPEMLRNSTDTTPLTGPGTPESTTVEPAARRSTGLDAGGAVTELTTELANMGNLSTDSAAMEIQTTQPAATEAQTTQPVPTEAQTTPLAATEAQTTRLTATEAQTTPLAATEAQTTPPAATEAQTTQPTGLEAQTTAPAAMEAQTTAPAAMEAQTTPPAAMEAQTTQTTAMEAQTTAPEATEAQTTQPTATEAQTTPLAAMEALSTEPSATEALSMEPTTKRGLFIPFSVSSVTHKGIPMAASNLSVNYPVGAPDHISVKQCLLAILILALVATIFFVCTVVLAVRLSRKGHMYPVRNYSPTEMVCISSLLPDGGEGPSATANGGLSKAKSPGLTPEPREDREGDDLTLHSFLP"}},
  "data": [
    {"variants_of": "B1", "settings": "with selpl_human SELPLG", "values": [
      {"variant": "MASPEHPGSPGCMGPITQCTARTQQEAPATGPDLPHPGPDGHLDTHSGLSSNSSMTTRELQQYWQNQKCRWKHVKLLFEIASARIEERKVSKFVVYQIIVIQTGSFDNNKAVLERQYSDFAKLQKALLKTFREEIEDVEFPRKHLTGNFAEEMICERRRALQEYLGLLYAIRCVRRSREFLDFLTRPELREAFGCLRAGQYPRALELLLRVLPLQEKLTAHCPAAAVPALCAVLLCHRDLDRPAEAFAAGERALQRLQAREGHRYYAPLLDAMVRLAYALGKDFVTLQERLEESQLRRPTPRGITLKELTVREYLH", "note": "[R116Q]", "effect of a mutation on the interaction": "disrupting interaction"}
    ]}
  ]
}
